Reference: the supplement of paper PMC9112550, “Optimization of the antimicrobial peptide Bac7 by deep mutational scanning” (BMC Biology, 2022)

tested on: Escherichia coli TOP10; experiment: shrunken log2 fold change of peptide-encoding DNA abundance (4.5 h post-induction vs induction); higher = less antimicrobial activity (less host growth inhibition); conditions: time post-induction: 4.5 h; library: site-saturation at positions 5, 18, 19, 20
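Note: peptides expressed intracellularly from a pBAD plasmid library in pooled LB shake-flask culture, induced with 0.3% L-arabinose, DNA abundance read by NGS, three biological replicates, DESeq2 with apeglm shrinkage.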

Point of comparison: RRIRHRPPRLPRPRPRPGEAPRP, “shrunken log2 fold change” value 0.051. Against it:
- RRIRSRPPRLPRPRPRPLDHPRP — within 0.2 log units, 0.0458
- RRIRMRPPRLPRPRPRPFSCPRP — within 0.2 log units, -0.115
- RRIRKRPPRLPRPRPRPDADPRP — within 0.2 log units, 0.163
- RRIRERPPRLPRPRPRPVTMPRP — lower, -0.433
- RRIRMRPPRLPRPRPRPFSYPRP — within 0.2 log units, -0.029
- RRIRDRPPRLPRPRPRPMMIPRP — within 0.2 log units, 0.0818
- RRIRVRPPRLPRPRPRPLRCPRP — within 0.2 log units, 0.0372
- RRIRRRPPRLPRPRPRPHRPPRP — within 0.2 log units, 0.203
- RRIRGRPPRLPRPRPRPGPMPRP — higher, 0.966
- RRIRWRPPRLPRPRPRPDFGPRP — within 0.2 log units, -0.0549
- RRIRFRPPRLPRPRPRPYFWPRP — lower, -0.241
- RRIRARPPRLPRPRPRPYCGPRP — lower, -0.192
- RRIRIRPPRLPRPRPRPWFSPRP — lower, -0.201
- RRIRERPPRLPRPRPRPNNAPRP — lower, -0.162
- RRIRARPPRLPRPRPRPYIAPRP — lower, -0.438
- RRIRCRPPRLPRPRPRPLQYPRP — within 0.2 log units, -0.0878
- RRIRERPPRLPRPRPRPGIEPRP — within 0.2 log units, 0.00615
- RRIRSRPPRLPRPRPRPWHSPRP — within 0.2 log units, -0.0018
- RRIRSRPPRLPRPRPRPIATPRP — higher, 0.344
- RRIRKRPPRLPRPRPRPVRNPRP — higher, 0.308
- RRIRKRPPRLPRPRPRPKVIPRP — within 0.2 log units, 0.156
- RRIRARPPRLPRPRPRPSIPPRP — lower, -0.349
- RRIRYRPPRLPRPRPRPHWLPRP — within 0.2 log units, -0.0432
- RRIRKRPPRLPRPRPRPKDPPRP — higher, 0.367
- RRIRCRPPRLPRPRPRPTHYPRP — higher, 0.513
- RRIRPRPPRLPRPRPRPYWRPRP — within 0.2 log units, -0.106
- RRIRCRPPRLPRPRPRPQVPPRP — within 0.2 log units, -0.106
- RRIRGRPPRLPRPRPRPSFPPRP — within 0.2 log units, -0.0674
- RRIRNRPPRLPRPRPRPRKFPRP — within 0.2 log units, -0.101
- RRIRGRPPRLPRPRPRPRNGPRP — higher, 0.343
- RRIRIRPPRLPRPRPRPECLPRP — within 0.2 log units, 0.0969
- RRIRRRPPRLPRPRPRPIEFPRP — within 0.2 log units, -0.0597
- RRIRQRPPRLPRPRPRPFSRPRP — within 0.2 log units, 0.00616
- RRIRMRPPRLPRPRPRPENEPRP — higher, 2.96
- RRIRWRPPRLPRPRPRPTVFPRP — higher, 0.255
- RRIRFRPPRLPRPRPRPEFHPRP — lower, -0.342
- RRIRFRPPRLPRPRPRPSKQPRP — within 0.2 log units, -0.101
- RRIRMRPPRLPRPRPRPAWYPRP — within 0.2 log units, 0.177
- RRIRQRPPRLPRPRPRPQYFPRP — within 0.2 log units, -0.00133
- RRIRPRPPRLPRPRPRPTATPRP — higher, 0.425
- RRIRFRPPRLPRPRPRPWRFPRP — within 0.2 log units, 0.22
- RRIRERPPRLPRPRPRPYKHPRP — lower, -0.684
- RRIRKRPPRLPRPRPRPPKKPRP — within 0.2 log units, 0.0439
- RRIRERPPRLPRPRPRPEFCPRP — within 0.2 log units, 0.112
- RRIRSRPPRLPRPRPRPFGYPRP — lower, -0.179
- RRIRQRPPRLPRPRPRPVPVPRP — lower, -0.228
- RRIRERPPRLPRPRPRPQAHPRP — within 0.2 log units, -0.0188
- RRIRSRPPRLPRPRPRPGYRPRP — within 0.2 log units, -0.0248
- RRIRARPPRLPRPRPRPTKTPRP — within 0.2 log units, 0.247
- RRIRWRPPRLPRPRPRPASFPRP — within 0.2 log units, -0.0603
- RRIRRRPPRLPRPRPRPFCWPRP — higher, 0.45
- RRIRRRPPRLPRPRPRPLDLPRP — lower, -0.158
- RRIRHRPPRLPRPRPRPDCNPRP — lower, -0.18
- RRIRYRPPRLPRPRPRPLSRPRP — lower, -0.155
- RRIRGRPPRLPRPRPRPWLQPRP — within 0.2 log units, 0.201
- RRIRGRPPRLPRPRPRPTHFPRP — higher, 0.71
- RRIRDRPPRLPRPRPRPNFWPRP — higher, 0.375
- RRIRMRPPRLPRPRPRPWNNPRP — lower, -0.964
- RRIRLRPPRLPRPRPRPGVDPRP — higher, 0.411
